Laboratory results as given in PMC10786891, “Massively parallel profiling of RNA-targeting CRISPR-Cas13d”.

Biological target: T1, EsCas13d, nuclease-dead (Eubacterium siraeum, UniProt B0MS50, R295A;H300A;R849A;H854A)
T1 sequence: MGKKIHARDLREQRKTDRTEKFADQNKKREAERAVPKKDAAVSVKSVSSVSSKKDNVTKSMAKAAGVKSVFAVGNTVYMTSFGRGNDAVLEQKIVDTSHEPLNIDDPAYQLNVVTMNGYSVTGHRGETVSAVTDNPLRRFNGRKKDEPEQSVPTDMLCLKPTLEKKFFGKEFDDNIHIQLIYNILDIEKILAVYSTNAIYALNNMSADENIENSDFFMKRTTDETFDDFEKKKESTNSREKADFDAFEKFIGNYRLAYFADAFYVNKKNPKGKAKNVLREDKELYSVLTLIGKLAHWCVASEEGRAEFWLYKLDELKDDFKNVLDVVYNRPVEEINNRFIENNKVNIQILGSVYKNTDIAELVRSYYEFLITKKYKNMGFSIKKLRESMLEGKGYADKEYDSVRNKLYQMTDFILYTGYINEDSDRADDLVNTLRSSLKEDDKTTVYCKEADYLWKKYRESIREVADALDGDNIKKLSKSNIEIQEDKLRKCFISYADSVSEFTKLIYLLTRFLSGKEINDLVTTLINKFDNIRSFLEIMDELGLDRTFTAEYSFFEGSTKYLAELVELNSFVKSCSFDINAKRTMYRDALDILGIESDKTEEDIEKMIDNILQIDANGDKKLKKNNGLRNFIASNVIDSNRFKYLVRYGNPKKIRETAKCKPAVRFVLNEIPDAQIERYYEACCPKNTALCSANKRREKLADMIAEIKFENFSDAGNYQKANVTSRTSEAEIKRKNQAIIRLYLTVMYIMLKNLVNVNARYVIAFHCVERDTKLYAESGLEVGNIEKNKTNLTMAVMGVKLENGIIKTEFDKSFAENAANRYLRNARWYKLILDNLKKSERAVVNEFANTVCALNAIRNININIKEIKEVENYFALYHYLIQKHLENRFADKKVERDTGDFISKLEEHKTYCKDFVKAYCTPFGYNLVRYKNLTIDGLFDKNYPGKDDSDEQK
Experiment: BLI; crRNA (strand 1, pre-loaded); Mg2+; 40 mM Tris-HCl pH 7.5, 150 mM NaCl, 6 mM MgCl2, 1 mM DTT, 0.1% Tween-20, 0.2 mg/ml BSA; temperature not stated
Conditions: tags: His6-TwinStrep-SUMO cleaved; label: 3' biotin on strand 2

Binder	Kd
crRNA-1 (D950N) target (mixed) RNA 1: CACCCGUGCAAAAUUGCAGGGGUCUAAAACUUUUGGUUGACCACAUCUUGAA RNA 2: UUGGAAAACUUCAAAAUGUGGUCAACCAAAAUGCACAAGC	15 nM
crRNA-2 (D950N) target (mixed) RNA 1: CACCCGUGCAAAAUUGCAGGGGUCUAAAACCUUGAAGUUUUCCAAGUGCACU RNA 2: UCCACAGCAAGUGCACUUGGAAAACUUCAAAAUGUGGUCA	2.9 nM
